Measurements taken from patent US10287317B2, “Proprotein convertase subtilisin kexin type 9 (PCSK9) allosteric binding ligands to modulate serum low density lipoprotein (LDL) levels” (SRX Cardio, LLC, priority 2013, dated 2019).
Where no end group is shown, it is not given here.

Legend:
PCSK9 GOF-D374Y protein = PCSK9 GOF-D374Y protein (Homo sapiens, UniProt Q8NBP7, D374Y); experiment: Cellular diI-LDL uptake in HepG2 cells with PCSK9 GOF-D374Y; type: cell-based
Protocol: […] After 16 h, dil-LDL (5 ug/ml) was added to the incubation mixtures. After 4 h, fluorescence was measured (Ex: 520 nm/Em: 575 nm; cutoff: 550 nm). Dil-LDL uptake is calculated as RFU corrected for the number of cells.
After 16 h, dil-LDL (5 ug/ml) was added to the incubation mixtures. After 4 h, fluorescence was measured (Ex: 520 nm/Em: 575 nm; cutoff: 550 nm). Dil-LDL uptake is calculated as RFU corrected for the number of cells. The PCSK9 and −/+SRX55 [SEQ ID NO: 2] mixtures were pre-incubated for 3 hrs at 37 C prior to addition to the cells.
LDL internalization was measured by uptake of a fluorescently tagged LDL molecule (diI-LDL) in the absence of exogenous PCSK9 (Cnt), in the presence of exogenous PCSK9 (normal PCSK9=WT, D374Y mutant PCSK9=DY), or in the presence of PCSK9 and a tested peptide (indicated as SRX##, or SRX if a single peptide results is shown in a graph). […]
Peptide activity was assessed by culturing cells with: i) no SRX peptide/PCSK9 protein complex (control, Cnt); ii) PCSK9 protein; and iii) SRX peptide/PCSK9 complex. […]
Cells were cultured using one of the combinations of conditions described in the preceding paragraph for 16 hours. […] Cell specimens were rinsed twice with PBS and then fluorescence measured with excitation at 360 nm and emission detected at 460 nm to measure DNA content. […]

PCSK9-WT protein = target: T1, PCSK9-WT protein (Homo sapiens, UniProt Q8NBP7); experiment: FACS analysis of cell surface LDLR in HuH7 cells with PCSK9-WT; type: cell-based
T1 construct: V5
T1 sequence (Q8NBP7 153-692): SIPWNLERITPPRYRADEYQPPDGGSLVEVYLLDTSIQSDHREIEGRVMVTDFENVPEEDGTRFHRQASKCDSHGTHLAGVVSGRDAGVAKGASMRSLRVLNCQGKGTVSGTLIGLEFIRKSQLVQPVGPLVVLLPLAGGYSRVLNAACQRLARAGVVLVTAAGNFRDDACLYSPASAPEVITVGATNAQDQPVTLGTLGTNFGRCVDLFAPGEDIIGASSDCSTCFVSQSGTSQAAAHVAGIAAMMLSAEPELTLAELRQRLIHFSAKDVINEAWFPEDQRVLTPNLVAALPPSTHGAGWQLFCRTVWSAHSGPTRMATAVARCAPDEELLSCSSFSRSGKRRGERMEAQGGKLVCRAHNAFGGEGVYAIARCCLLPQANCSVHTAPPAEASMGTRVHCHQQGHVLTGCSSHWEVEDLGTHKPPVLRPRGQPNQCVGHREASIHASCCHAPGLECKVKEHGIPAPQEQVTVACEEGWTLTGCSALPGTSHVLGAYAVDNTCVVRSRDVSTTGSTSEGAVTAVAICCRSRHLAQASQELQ
Protocol: HuH7 cells were incubated for 18 h in the absence (Cnt) or presence of 0.75 μg/ml PCSK9-WT protein alone (WT) or mixed with 100 μM of various SRX peptides. The level of LDLR at the cell surface was measured by FACS using anti human LDLR Ab and a suitable secondary Ab labeled with Alexa 647. Cell surface LDLR is reported relative to Cnt. % inhibition of activity was calculated as [SRX−WT]/[Cnt−WT]×100%.
See, FIG. 1. In that experiment, the LDLR levels of a hepatocyte culture model (HuH7 cells) were measured by fluorescence activated cell sorting (FACS) in accordance with Example III. Cell surface LDLR is reported as a percentage of Basal levels of LDLR, indicated by the Cnt_Amm.Bic, Cnt_Ac.Acid, and Cnt bars in the top graph. See, FIG. 1 (top panel). LDLR levels in the presence of exogenous PCSK9 is indicated as WT_Amm.Bic, WT-Ac.Acid, and WT, and Exogenous PCSK9 in combination with a tested peptide is indicated as SRX##. The measured LDLR levels are reported as % versus basal controls (Cnt) of the respective group. […] This was further shown a percent inhibition (% inhibition was calculated as [SRX−WT]/[Cnt−WT]×100%) where positive modulation (increase) of LDLR level is reported as positive % inhibition, and negative modulation (decrease) of LDLR level is reported as negative % inhibition. See, FIG. 1 (bottom panel).
Benjannet et al., “Effects of the prosegment and pH on the activity of PCSK9: evidence for additional processing events” J Biol Chem. 285(52): 40965-40978 (2010). The cells were then washed 3× with solution A (calcium/magnesium-free Dulbecco's PBS (Invitrogen) containing 0.5% bovine serum albumin (Sigma) and 1 g/liter glucose)). The cells were then incubated for 10 min at room temperature with 1× Versene solution (Invitrogen) followed by the addition of 5 ml of solution A. The cells were then incubated for 40 min in solution A containing a human LDLR mAb-C7 (1:100; Santa Cruz Biotechnology). Following washes, the cells were then incubated for 20 min in solution A containing a secondary antibody (Alexa Fluor 647 donkey anti-mouse antibody; 1:250; Molecular Probes).
Following suspension in PBS containing 0.2% of propidium iodide, the cells were analyzed by FACS for both propidium iodide (dead cells) and LDLR in live cells with Alexa Fluor 647 using the FACS BD LSR (BD Biosciences).

Sequence of PCSK9 GOF-D374Y protein (Q8NBP7 153-692 D374Y): as the sequence (Q8NBP7 153-692) above, with D222Y counted along it

- LDL internalization (dil-LDL % uptake vs Cnt) (PCSK9 GOF-D374Y protein; HepG2, 2 μg/ml PCSK9 GOF-D374Y, dose dependent manner (FIG. 5)): positively modulated (increased)
- LDL internalization (dil-LDL % uptake vs Cnt) (PCSK9 GOF-D374Y protein; HepG2, D374Y 0.6 ug/ml, pre-incubated 3 hrs at 37 C, dose dependent manner (FIG. 6)): positively modulated (increased)
- modulation of LDLR cell surface level (PCSK9-WT protein; HuH7 cells, FACS, exogenous WT PCSK9 plus peptide (FIG. 1, 100 μM)): positively modulate (increase)
- increase of cell surface expression of LDL-R (PCSK9-WT protein; WT PCSK9, FACS in HuH7 cells): 100%
Substance: Val-Tyr-Val-Arg-Phe-Trp (VYVRFW; not fully specified (C-terminus); printed as Val-Tyr-Val-Arg-Phe-Trp) [Compound 1]
